{
  "source": "patent US20110250284A1",
  "about": "“Nanoparticles for Use as Synthetic Platelets and Therapeutic Agent Delivery Vehicles” (priority 2008, published 2011)",
  "molecules": {"B1": {"name": "CNTF: Recombinant human ciliary neurotrophic factor with BSA carrier (R&D Systems) (protein, UniProt P26441 1-200, looked up)", "Ciliary neurotrophic factor": "MAFTEHSPLTPHRRDLCSRSIWLARKIRSDLTALTESYVKHQGLNKNINLDSADGMPVASTDQWSELTEAERLQENLQAYRTFHVLLARLLEDQQVHFTPTEGDFHQAIHTLLLQVAAFAYQIEELMILLEYKIPRNEADGMPINVGDGGLFEKKLWGLKVLQELSQWTVRSIHDLRFISSHQTGIPARGSHYIANNKKM", "modifications": "BSA carrier"}},
  "system": "NSCs",
  "test": "NSC behavior cultured near hydrogels with CNTF delivery component",
  "type": "cell-based",
  "conditions": "seven days",
  "description": "NSCs were positive for green fluorescent protein (GFP) and were maintained in high glucose DMEM/F12 (1:1) supplemented with 20 ng/mL mouse epidermal growth factor (EGF), N-2, B-27, penicillin/streptomycin, and L-glutamine.\nTo test the response of NSCs cultured near but not directly on or within hydrogels with a CNTF delivery component, NSCs were seeded as neurospheres in chamber slides at a concentration of 5×10^5 cells/mL. A hydrogel containing acrylated nanoparticles encapsulating an estimated 10 ng of CNTF was added to the culture medium. In other experiments a hydrogel containing either blank (BSA-only) nanoparticles, no nanoparticles, or unencapsulated CNTF at 10 ng/mL was added, and no hydrogel was added in the negative control. Throughout the seven days of the experiment, the migration of NSCs out of the neurospheres was measured using the fluorescence of the GFP NSCs. At the end of seven days, all hydrogels were removed. Cells were fixed for analysis in 10% formalin for 1 hour and rinsed in 1× PBS. Differentiation was quantified by immunocytochemistry as described below.\nSamples were blocked (3% normal goat serum, 5% BSA, 0.3% TritonX-100) for 1 hour, then rinsed and incubated with primary antibodies against mouse β-III-tubulin (B3T; Promega; 1:1000), mouse nestin (BD Biosciences; 1:200), rabbit glial fibrillary acidic protein (GFAP; Sigma; 1:160), rabbit oligodendrocyte transcription factor 1 (Olig1; Chemicon; 1:200), or caspase-3 (Sigma, 1:10) for 2 hours. They were then rinsed and incubated with species-specific Alexa Fluor 647 secondary antibodies (Molecular Probes; 1:200) for 1 hour, and rinsed again. Cells in chamber slides were also stained with DAPI (1:35000) for 5 minutes, rinsed again, and stored in 1× PBS at 4° C. […]\nThe slides were viewed using a Zeiss Axiovert 200 microscope with a Zeiss Mrc camera, and images were captured through Axiovert 4.0 software. Expression of each marker was quantified by the ratio of the area of fluorescence for each marker to the area of fluorescence for the GFP labeling. Results are expressed as mean±coefficient of variation.",
  "data": [
    {"molecule": "B1", "values": [
      {"measurement": "migration of NSCs out of neurospheres", "setting": "hydrogel added to culture medium", "result": "increased migration"},
      {"measurement": "GFAP expression", "setting": "immunocytochemistry", "result": "upregulation of GFAP"},
      {"measurement": "nestin expression", "setting": "immunocytochemistry", "result": "downregulation of nestin"}
    ]}
  ]
}
